Data reported in publication PMC5292684, “High affinity anchoring of the decoration protein pb10 onto the bacteriophage T5 capsid” (Scientific Reports, 2017).
Changes are numbered by the printed parent chain. Names may count otherwise.

B1: decoration protein pb10 of bacteriophage T5, full-length, fused to a C-terminal histidine tag (natural protein, UniProt Q6QGD6 1-164, looked up)
chain: MIDYSGLRTIFGEKLPESHIFFATVAAHKYVPSYAFLRRELGLSSAHTNRKVWKKFVEAYGKAIPPAPPAPPLTLSKDLTASMSVEEGAALTLSVTATGGTGPYTYAWTKDGSPIPDASGATYTKPTAAAEDAGSYKVTVTDSKQVSKDSTTCAVTVNPTVPGG
notes: decoration protein pb10 of bacteriophage T5, 164 amino acids, GenBank AAU05286; Monomer by SEC-MALLS (17 kDa); 18.3 kDa with the His tag; also called pb10-His; His-tagged pb10; source: pET28b expression vector, purified (expression and purification detailed in SI); not shown: His-Tag, C-terminal, kept
B2: pb10 F36A-R38A (natural protein)
chain: B1 chain with F36A, R38A
B3: pb10 Y34A-R38E (natural protein)
chain: B1 chain with Y34A, R38E
B4: pb10 F36A-R38E (natural protein)
chain: B1 chain with F36A, R38E
B5: pb10 R38A (natural protein)
chain: B1 chain with R38A
B6: pb10 F36A (natural protein)
chain: B1 chain with F36A
B7: pb10 R38E (natural protein)
chain: B1 chain with R38E
B8: major capsid protein pb8 of bacteriophage T5 (natural protein, UniProt Q6QGD8 160-458, looked up)
chain: AVNQSSSVEVSSESYETIFSQRIIRDLQKELVVGALFEELPMSSKILTMLVEPDAGKATWVAASTYGTDTTTGEEVKGALKEIHFSTYKLAAKSFITDETEEDAIFSLLPLLRKRLIEAHAVSIEEAFMTGDGSGKPKGLLTLASEDSAKVVTEAKADGSVLVTAKTISKLRRKLGRHGLKLSKLVLIVSMDAYYDLLEDEEWQDVAQVGNDSVKLQGQVGRIYGLPVVVSEYFPAKANSAEFAVIVYKDNFVMPRQRAVTVERERQAGKQRDAYYVTQRVNLQRYFANGVVSGTYAAS
notes: major capsid protein (head protein) pb8 of bacteriophage T5, after its N-terminal scaffolding domain is cleaved off by the protease pb11; as a hexamer of the expanded capsid; Hexamer within the capsid lattice; the deposited model 5TJT is a homology model flexibly fitted into the cryo-EM map; also called head protein
B9: pb10 N-terminal domain (NTD), residues 1 to 77 (domain or fragment)
chain: MIDYSGLRTIFGEKLPESHIFFATVAAHKYVPSYAFLRRELGLSSAHTNRKVWKKFVEAYGKAIPPAPPAPPLTLSK

Tests used:
[1] = biological target: bacteriophage T5 empty expanded capsid (without pb10) (bacteriophage T5); assay: SPR; as a3 but PBS containing 500 mM NaCl; koff set at 2 x 10^-4 s^-1; single experiment
Target sequence in this assay (Q6QGD5 11-403 limits assumed): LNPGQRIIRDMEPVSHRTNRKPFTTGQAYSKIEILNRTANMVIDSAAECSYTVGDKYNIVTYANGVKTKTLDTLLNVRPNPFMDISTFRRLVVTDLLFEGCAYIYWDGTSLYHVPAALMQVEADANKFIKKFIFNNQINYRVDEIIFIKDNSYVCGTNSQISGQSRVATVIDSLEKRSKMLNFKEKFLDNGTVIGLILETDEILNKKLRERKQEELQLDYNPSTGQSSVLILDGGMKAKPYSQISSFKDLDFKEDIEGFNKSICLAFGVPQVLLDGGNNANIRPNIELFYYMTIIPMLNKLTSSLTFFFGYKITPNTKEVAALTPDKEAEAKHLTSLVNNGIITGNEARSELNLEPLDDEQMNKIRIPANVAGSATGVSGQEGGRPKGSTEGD

[2] = biological target: bacteriophage T5 empty expanded capsid (without pb10) (bacteriophage T5); assay: SPR; as a3 but PBS containing 750 mM NaCl; koff set at 2 x 10^-4 s^-1; single experiment
Target sequence in this assay (Q6QGD5 11-403 limits assumed): as above

[3] = biological target: B8; assay: cryo-EM structure; icosahedral reconstructions of empty expanded capsids with pb10 (9 Å) and without pb10 (8 Å); pb8 homology model fitted into the hexamer density; conditions: both partners purified
[4] = biological target: bacteriophage T5 empty expanded capsid (without pb10) (bacteriophage T5); assay: SPR; as a3 but PBS containing 300 mM NaCl; koff set at 2 x 10^-4 s^-1; single experiment
Target sequence in this assay (Q6QGD5 11-403 limits assumed): as above

[5] = biological target: bacteriophage T5 empty expanded capsid (without pb10) (bacteriophage T5); assay: SPR; T200, 25 °C, PBS (137 mM NaCl) with 1 mg/mL BSA; expanded capsids captured on a CM5 chip through immobilised rabbit anti-capsid antibodies; pb10 variants 0.09 to 40 nM injected at 50 uL/min; koff set at 2 x 10^-4 s^-1 for all proteins; global fit to a Langmuir mass transport-limited model
[6] = biological target: the molecule itself; assay: cryo-EM structure; icosahedral reconstructions of empty expanded capsids with pb10 (9 Å) and without pb10 (8 Å); pb8 homology model fitted into the hexamer density

Row | Binder | Kd [5] | koff [5] | kon [5] | other results
1 | B1 | 1.11 pM | 0.0002 s⁻¹ | 1.8e+08 M⁻¹ s⁻¹ | Kd [1]: 4.2 pM; koff [1]: 0.0002 s⁻¹; kon [1]: 4.76e+07 M⁻¹ s⁻¹; Kd [2]: 22.2 pM; koff [2]: 0.0002 s⁻¹; kon [2]: 9.01e+06 M⁻¹ s⁻¹; binding result [3]: binds; Kd [4]: 1.8 pM; koff [4]: 0.0002 s⁻¹; kon [4]: 1.11e+08 M⁻¹ s⁻¹; maximum mass increase of the capsid on decoration [5]: 8%; signal decrease over 700 s of dissociation [5]: 7%
2 | B2 | 3.27 pM | 0.0002 s⁻¹ | 6.11e+07 M⁻¹ s⁻¹ | 
3 | B3 | 480 pM | 0.0002 s⁻¹ | 417000 M⁻¹ s⁻¹ | 
4 | B4 | 10.3 pM | 0.0002 s⁻¹ | 1.95e+07 M⁻¹ s⁻¹ | 
5 | B5 | 1.67 pM | 0.0002 s⁻¹ | 1.2e+08 M⁻¹ s⁻¹ | 
6 | B6 | 0.23 pM | 0.0002 s⁻¹ | 8.66e+08 M⁻¹ s⁻¹ | 
7 | B7 | 2.36 pM | 0.0002 s⁻¹ | 8.47e+07 M⁻¹ s⁻¹ | 
8 | B8 |  |  |  | stoichiometry N [6]: 6
9 | B9 | 0.55 pM | 0.0002 s⁻¹ | 3.62e+08 M⁻¹ s⁻¹ | 
